This note sets out measurements from article PMC6763540 (2013).

T1: Tie2 (Homo sapiens, UniProt Q02763)
T1 chain: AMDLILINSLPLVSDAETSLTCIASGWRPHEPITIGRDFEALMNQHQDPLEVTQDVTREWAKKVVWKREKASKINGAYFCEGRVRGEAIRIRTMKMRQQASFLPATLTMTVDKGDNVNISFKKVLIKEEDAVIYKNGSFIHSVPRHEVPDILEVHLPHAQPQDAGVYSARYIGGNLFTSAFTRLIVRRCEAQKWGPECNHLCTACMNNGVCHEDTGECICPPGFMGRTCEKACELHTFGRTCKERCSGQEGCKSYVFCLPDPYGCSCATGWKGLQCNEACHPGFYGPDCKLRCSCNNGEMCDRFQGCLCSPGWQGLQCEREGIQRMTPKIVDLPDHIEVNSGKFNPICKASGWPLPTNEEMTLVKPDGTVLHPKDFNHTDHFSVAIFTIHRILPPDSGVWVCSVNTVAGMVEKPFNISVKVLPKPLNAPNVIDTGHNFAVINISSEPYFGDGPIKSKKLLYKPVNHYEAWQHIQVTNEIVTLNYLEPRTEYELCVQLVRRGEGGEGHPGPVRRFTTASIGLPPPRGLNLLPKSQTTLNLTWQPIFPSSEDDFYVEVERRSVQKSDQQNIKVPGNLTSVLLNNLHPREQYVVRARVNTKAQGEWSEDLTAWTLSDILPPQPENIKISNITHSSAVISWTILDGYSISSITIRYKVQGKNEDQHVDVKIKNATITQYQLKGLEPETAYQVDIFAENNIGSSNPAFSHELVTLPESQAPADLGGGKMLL

B1: Angiopoietin-2 (Ang2) (protein)
chain: YNNFRKSMDSIGKKQYQVQHGSCSYTFLLPEMDNCRSSSSPYVSNAVQRDAPLEYDDSVQRLQVLENIMENNTQWLMKLENYIQDNMKKEMVEIQQNAVQNQTAVMIEIGTNLLNQTAEQTRKLTDVEAQVLNQTTRLELQLLEHSLSTNKLEKQILDQTSEINKLQDKNSFLEKKVLAMEDKHIIQLQSIKEEKDQLQVLVSKQNSIIEELEKKIVTATVNNSVLQKQQHDLMETVNNLLTMMSTSNSAKDPTVAKEEQISFRDCAEVFKSGHTTNGIYTLTFPNSTEEIKAYCDMEAGGGGWTIIQRREDGSVDFQRTWKEYKVGFGNPSGEYWLGNEFVSQLTNQQRYVLKIHLKDWEGNEAYSLYEHFYLSSEELNYRIHLKGLTGTAGKISSISQPGNDFSTKDGDNDKCICKCSQMLTGGWWFDACGPSNLNGMYYPQRQNTNKFNGIKWYYWKGSGYSLKATTMMIRPADF
B2: Angiopoietin-1 (Ang1) (protein)
chain: HIGCSNQRRSPENSGRRYNRIQHGQCAYTFILPEHDGNCRESTTDQYNTNALQRDAPHVEPDFSSQKLQHLEHVMENYTQWLQKLENYIVENMKSEMAQIQQNAVQNHTATMLEIGTSLLSQTAEQTRKLTDVETQVLNQTSRLEIQLLENSLSTYKLEKQLLQQTNEILKIHEKNSLLEHKILEMEGKHKEELDTLKEEKENLQGLVTRQTYIIQELEKQLNRATTNNSVLQKQQLELMDTVHNLVNLCTKEGVLLKGGKREEEKPFRDCADVYQAGFNKSGIYTIYINNMPEPKKVFCNMDVNGGGWTVIQHREDGSLDFQRGWKEYKMGFGNPSGEYWLGNEFIFAITSQRQYMLRIELMDWEGNRAYSQYDRFHIGNEKQNYRLYLKGHTGTAGKQSSLILHGADFSTKDADNDNCMCKCALMLTGGWWFDACGPSNLNGMFYTAGQNHGKLNGIKWHYFKGPSYSLRSTTMMIRPLDF
B3: activated protein C (APC) (protein)
chain 1: ANSFLEELRHSSLERECIEEICDFEEAKEIFQNVDDTLAFWSKHVDGDQCLVLPLEHPCASLCCGHGTCIDGIGSFSCDCRSGWEGRFCQREVSFLNCSLDNGGCTHYCLEEVGWRRCSCAPGYKLGDDLLQCHPAVKFPCGRPWKRMEKKRSHL
chain 2: LIDGKMTRRGDSPWQVVLLDSKKKLACGAVLIHPSWVLTAAHCMDESKKLLVRLGEYDLRRWEKWELDLDIKEVFVHPNYSKSTTDNDIALLHLAQPATLSQTIVPICLPDSGLAERELNQAGQETLVTGWGYHSSREKEAKRNRTFVLNFIKIPVVPHNECSEVMSNMVSENMLCAGILGDRQDACEGDSGGPMVASFHGTWFLVGLVSWGEGCGLLHNYGVYTKVSRYLDWIHGHIRDKEAPQKSWAP

The assay deals with T1, Tie2. The assay can be described thus: SPR (Biacore).
For B1, the Kd worked out at 32 pM.
To B2 belongs 2 pM.
To B3 belongs 3 pM.

By Kd is commonly meant a measure of binding affinity in units of concentration. A lower Kd goes with higher affinity.
